Source: IntAct's records for PubMed 16418290

B1: Caspase recruitment domain-containing protein 6 (Homo sapiens), Q9BX69 (parent)
chain: MATESTPSEIIERERKKLLEILQHDPDSILDTLTSRRLISEEEYETLENVTDLLKKSRKLLILVQKKGEATCQHFLKCLFSTFPQSAAICGLRHEVLKHENTVPPQSMGASSNSEDAFSPGIKQPEAPEITVFFSEKEHLDLETSEFFRDKKTSYRETALSARKNEKEYDTPEVTLSYSVEKVGCEVPATITYIKDGQRYEELDDSLYLGKEEYLGSVDTPEDAEATVEEEVYDDPEHVGYDGEEDFENSETTEFSGEEPSYEGSETSLSLEEEQEKSIEERKKVFKDVLLCLNMDRSRKVLPDFVKQFSLDRGCKWTPESPGDLAWNFLMKVQARDVTARDSILSHKVLDEDSKEDLLAGVENLEIRDIQTINPLDVLCATMLCSDSSLQRQVMSNMYQCQFALPLLLPDAENNKSILMLGAMKDIVKKQSTQFSGGPTEDTEKFLTLMKMPVISFVRLGYCSFSKSRILNTLLSPAQLKLHKIFLHQDLPLLVLPRQISDGLVEITWCFPDSDDRKENPFFQKPVALANLRGNLESFWTQFGFLMEVSSAVFFFTDCLGEKEWDLLMFLGEAAIERCYFVLSSQARESEEAQIFQRILNLKPAQLLFWERGDAGDRRKNMEGLQAALQEVMFSSCLRCVSVEDMAALARELGIQVDEDFENTQRIQVSSGENMAGTAEGEGQQRHSQLKSSSKSQALMPIQEPGTQCELSQNLQNLYGTPVFRPVLENSWLFPTRIGGNFNHVSLKASWVMGRPFGSEQRPKWFHPLPFQNAGAQGRGKSFGIQSFHPQIFYSGERFMKFSRVARGCHSNGTFGRLPRPICQHVQACPERPQMMGTLERSRAVASKIGHSYSLDSQPARAVGKPWPQQACTRVTELTEATGKLIRTSHIGKPHPQSFQPAAATQKLRPASQQGVQMKTQGGASNPALQIGSHPMCKSSQFKSDQSNPSTVKHSQPKPFHSVPSQPKSSQTKSCQSQPSQTKPSPCKSTQPKPSQPWPPQSKPSQPRPPQPKSSSTNPSQAKAHHSKAGQKRGGKH

Variants of: B1
Details: with ripk2_human RIPK2, O43353
Sequence of ripk2_human RIPK2, O43353 (O43353 whole entry): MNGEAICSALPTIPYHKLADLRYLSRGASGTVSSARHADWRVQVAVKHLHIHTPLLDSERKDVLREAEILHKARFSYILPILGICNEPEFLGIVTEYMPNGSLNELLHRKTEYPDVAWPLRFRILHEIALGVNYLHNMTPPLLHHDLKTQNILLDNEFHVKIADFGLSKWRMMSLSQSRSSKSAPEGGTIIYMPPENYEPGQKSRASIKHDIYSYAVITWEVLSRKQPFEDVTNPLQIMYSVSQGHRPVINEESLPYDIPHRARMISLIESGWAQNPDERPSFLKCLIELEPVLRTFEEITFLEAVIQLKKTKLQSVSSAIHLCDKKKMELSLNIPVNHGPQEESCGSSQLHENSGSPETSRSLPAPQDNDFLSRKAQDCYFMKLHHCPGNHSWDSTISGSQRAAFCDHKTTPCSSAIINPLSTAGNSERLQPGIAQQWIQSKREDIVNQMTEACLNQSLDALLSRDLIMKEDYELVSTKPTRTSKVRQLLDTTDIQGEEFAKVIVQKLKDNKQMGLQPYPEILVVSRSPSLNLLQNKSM

Row | Variant | effect of a mutation on the interaction
1 | L30R;D31N;L33R | increasing interaction strength
